Patent US20240131074A1 (TENEOBIO, published 2024)
Each block holds one binder with its values, some of them ahead of it.

Key:
[1] = target: T1, human PSMA expressed on cells (LNCaP, 22Rv1, PC3 cells stably transfected to express human PSMA) (human, UniProt Q04609 1-750); assay: cell-binding assay on PSMA+ cells
T1 construct: whole, on cells; Type II transmembrane protein; The background section calls it a non-covalent homodimer; also called Prostate Specific Membrane Antigen; Glutamate Carboxypeptidase II
T1 sequence (Q04609 whole entry): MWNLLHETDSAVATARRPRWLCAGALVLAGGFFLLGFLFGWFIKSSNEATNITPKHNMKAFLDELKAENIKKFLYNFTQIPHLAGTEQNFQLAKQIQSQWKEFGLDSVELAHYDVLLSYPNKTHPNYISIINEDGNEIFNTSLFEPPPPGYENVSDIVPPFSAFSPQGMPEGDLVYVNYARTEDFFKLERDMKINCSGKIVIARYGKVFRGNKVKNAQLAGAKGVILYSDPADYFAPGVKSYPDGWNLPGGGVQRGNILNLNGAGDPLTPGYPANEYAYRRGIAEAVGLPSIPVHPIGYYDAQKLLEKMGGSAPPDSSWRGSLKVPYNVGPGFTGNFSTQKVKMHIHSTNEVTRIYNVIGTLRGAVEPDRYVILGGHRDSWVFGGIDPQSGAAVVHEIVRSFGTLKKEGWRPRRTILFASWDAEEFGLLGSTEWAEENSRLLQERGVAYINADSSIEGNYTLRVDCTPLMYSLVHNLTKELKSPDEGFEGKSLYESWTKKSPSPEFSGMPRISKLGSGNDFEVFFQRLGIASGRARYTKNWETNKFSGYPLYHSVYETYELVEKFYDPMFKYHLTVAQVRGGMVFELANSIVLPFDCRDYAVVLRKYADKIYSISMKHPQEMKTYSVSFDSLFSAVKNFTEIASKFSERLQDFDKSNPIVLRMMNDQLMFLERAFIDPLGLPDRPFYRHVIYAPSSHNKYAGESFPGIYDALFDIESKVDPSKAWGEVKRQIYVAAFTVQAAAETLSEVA

[2] = target: human PSMA protein (ELISA) (human, UniProt Q04609 44-750, limits assumed); assay: ELISA on human PSMA protein
Sequence of human PSMA protein (ELISA) (Q04609 44-750 limits assumed): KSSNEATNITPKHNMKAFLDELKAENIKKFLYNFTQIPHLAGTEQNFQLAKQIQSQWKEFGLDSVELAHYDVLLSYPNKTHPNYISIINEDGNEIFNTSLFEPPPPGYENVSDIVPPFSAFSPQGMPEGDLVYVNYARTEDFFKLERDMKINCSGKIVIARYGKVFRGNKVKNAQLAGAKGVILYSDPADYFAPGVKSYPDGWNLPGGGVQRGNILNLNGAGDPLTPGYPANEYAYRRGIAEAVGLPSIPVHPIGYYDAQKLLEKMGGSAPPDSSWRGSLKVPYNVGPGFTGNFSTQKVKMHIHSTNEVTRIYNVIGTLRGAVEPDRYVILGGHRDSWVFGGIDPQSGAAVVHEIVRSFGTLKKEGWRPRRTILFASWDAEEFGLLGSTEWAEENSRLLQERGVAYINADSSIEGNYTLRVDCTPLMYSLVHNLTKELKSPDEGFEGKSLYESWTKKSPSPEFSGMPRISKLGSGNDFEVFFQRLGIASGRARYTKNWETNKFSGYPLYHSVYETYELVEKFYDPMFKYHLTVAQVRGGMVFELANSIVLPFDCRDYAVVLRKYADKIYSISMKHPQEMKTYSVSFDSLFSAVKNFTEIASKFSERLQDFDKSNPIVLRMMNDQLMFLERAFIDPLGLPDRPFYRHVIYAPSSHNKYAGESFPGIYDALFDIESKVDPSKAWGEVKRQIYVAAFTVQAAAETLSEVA
Method: The two indicated antibodies were tested for binding in a standard ELISA assay to human PSMA. The human PSMA protein was used at a concentration of 2 μg/mL to capture UniAbs at 50 ng/mL. Antibody binding was detected with a goat anti-human IgG HRP conjugated antibody (ThermoFisher 31413). All antibodies were diluted in 1× PBS with 0.05% Tween-20 and 1% dry milk powder.

- binding result [1]: binds
- binding result [2]: binds
B1: Anti-PSMA heavy chain-only antibody (UniAb) Clone ID 325795 (antibody, V domains shown)
VH: EVQLLESGGGLVQPGGSLRLSCAASGFTFKFYAMSWVRQAPGKGPEWVSVISGSGGSTYYADSVKGRFTISRDNSKNTLHLQMNSLRAEDTAVYFCAKEIAEASRGFDYRGQGTLVTVSS
notes: Heavy chain-only antibody with no light chain

- binding result [1]: binds
- binding result [2]: binds
B2: Anti-PSMA heavy chain-only antibody (UniAb) Clone ID 325972 (antibody, V domains shown)
VH: EVQLLESGGGVVQPGRSLRLSCAASGFSFSGYGMHWVRQAPGKEREWVAVISYDGSNKYYADSVKGRFTISRDNSKNTLYLQMNSLRAEDTAVYYCAKDANWGQHPDHTSFDYRGQGTLVTVSS
notes: as for B1
